Values of other authors, collected in paper PMC7702019 (ACS chemical biology, 2020).
Bridges are numbered along the chain shown (N, C = ends). Where no end group is shown, it is not given here.

Settings: for amyloidogenicity: under normal conditions, rat and mouse amylin

## bovine amylin: bovine amylin (CGTATCETQRLANFLAPSSNKLGAIFSPTKMGSNTY; ends and bridges not checked; cysteine pairing not given here; UniProt Q28207 37-72, looked up)
Porcine and bovine amylin
  amyloidogenicity relative to human amylin: much less amyloidogenic than human amylin

## H18R: H18R substitution of human amylin (literature) (KCNTATCATQRLANFLVRSSNNFGAILSSTNVGSNTY; ends and bridges not checked; cysteine pairing not given here; UniProt P10997 34-70, looked up, variant H18R)
Substitution in human amylin, in vitro
  rate of amyloid formation in vitro: reduces the rate of amyloid formation

## mouse amylin: identical sequence to rat amylin
  amyloidogenicity: not amyloidogenic under normal conditions

## rat amylin: contains prolines at position 25, 28, and 29 and a H18R replacement relative to human amylin
In vitro, reference not given
  amyloid formation in vitro: form amyloid in vitro, but only at very high non-physiological conditions
  amyloidogenicity: not amyloidogenic under normal conditions

## Pramlintide: triple mutant of human amylin with A25, S28, and S29 replaced by Pro (KCNTATCATQRLANFLVHSSNNFGPILPPTNVGSNTY-NH2; disulfide 2-7; UniProt P10997 34-70, looked up, variant A25P S28P S29P)
pramlintide, reference not given
  amyloidogenicity in vitro: not amyloidogenic in vitro, except at high concentrations
